Assay results: PMC12068309, “AHCYL1 mediates the tumor-promoting effect of PREX2 in non-small cell lung carcinoma” (Theranostics, 2025)

Target: T1, purified Flag-PREX2 protein (UniProt Q70Z35 1-1606)
T1 construct: PREX2, full length (183 kD); it may be the same construct; also called purified PREX2 protein; purified full-length PREX2; source: recombinant, purified (as described in Supplementary materials and methods)
Assay: pull-down; 25 µL AHCYL1-binding glutathione magnetic beads with 250 ng purified Flag-PREX2, on ice 1 h; washed with 50 mM Tris-HCl pH 7.4, 300 mM NaCl, 0.5% NP40; detected by Flag antibody
Settings: both partners purified

T1 sequence (Q70Z35 whole entry): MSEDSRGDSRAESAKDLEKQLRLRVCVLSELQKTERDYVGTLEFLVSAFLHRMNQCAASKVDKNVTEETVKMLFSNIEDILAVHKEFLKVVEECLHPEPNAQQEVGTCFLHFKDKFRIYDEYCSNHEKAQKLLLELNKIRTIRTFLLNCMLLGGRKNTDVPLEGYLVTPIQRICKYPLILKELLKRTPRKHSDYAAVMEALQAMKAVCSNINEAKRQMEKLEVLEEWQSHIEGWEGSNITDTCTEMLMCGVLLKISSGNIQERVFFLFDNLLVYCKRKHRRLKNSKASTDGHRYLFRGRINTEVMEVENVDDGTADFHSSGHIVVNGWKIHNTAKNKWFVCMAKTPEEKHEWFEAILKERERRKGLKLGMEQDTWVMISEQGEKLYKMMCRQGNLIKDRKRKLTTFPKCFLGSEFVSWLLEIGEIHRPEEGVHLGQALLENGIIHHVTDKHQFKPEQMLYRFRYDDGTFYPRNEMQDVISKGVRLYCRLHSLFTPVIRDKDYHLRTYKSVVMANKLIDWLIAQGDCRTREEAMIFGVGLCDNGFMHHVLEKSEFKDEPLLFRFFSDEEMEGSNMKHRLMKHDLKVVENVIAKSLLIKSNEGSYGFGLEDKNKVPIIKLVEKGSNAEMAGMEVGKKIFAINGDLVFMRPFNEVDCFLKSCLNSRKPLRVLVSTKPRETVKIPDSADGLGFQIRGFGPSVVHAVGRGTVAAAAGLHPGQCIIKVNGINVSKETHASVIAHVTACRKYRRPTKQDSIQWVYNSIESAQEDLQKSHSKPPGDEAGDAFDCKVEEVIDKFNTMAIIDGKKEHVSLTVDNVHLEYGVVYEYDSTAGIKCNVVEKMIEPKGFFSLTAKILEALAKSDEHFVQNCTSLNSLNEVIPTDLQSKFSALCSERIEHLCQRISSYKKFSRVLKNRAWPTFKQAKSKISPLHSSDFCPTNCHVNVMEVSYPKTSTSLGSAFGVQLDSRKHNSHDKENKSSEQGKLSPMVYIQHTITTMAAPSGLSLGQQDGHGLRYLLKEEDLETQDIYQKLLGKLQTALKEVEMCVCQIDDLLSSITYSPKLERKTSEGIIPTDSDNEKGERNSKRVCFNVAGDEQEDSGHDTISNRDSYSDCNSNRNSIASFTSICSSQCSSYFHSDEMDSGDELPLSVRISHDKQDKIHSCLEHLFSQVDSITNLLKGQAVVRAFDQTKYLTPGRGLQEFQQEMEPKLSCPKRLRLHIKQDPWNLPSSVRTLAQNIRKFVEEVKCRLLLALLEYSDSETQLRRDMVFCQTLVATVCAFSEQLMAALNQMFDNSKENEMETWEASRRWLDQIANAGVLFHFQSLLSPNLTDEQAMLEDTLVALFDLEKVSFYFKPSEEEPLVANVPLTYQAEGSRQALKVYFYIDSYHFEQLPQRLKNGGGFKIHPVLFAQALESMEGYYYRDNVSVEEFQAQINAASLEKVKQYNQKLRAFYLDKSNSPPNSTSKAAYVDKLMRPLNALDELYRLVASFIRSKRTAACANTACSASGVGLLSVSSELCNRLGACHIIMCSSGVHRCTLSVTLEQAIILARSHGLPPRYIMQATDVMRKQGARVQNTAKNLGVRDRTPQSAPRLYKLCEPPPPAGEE

binding result: binds
B1: GST-AHCYL1 recombinant protein (natural protein, UniProt O43865 1-530, looked up)
chain: MSMPDAMPLPGVGEELKQAKEIEDAEKYSFMATVTKAPKKQIQFADDMQEFTKFPTKTGRRSLSRSISQSSTDSYSSAASYTDSSDDEVSPREKQQTNSKGSSNFCVKNIKQAEFGRREIEIAEQDMSALISLRKRAQGEKPLAGAKIVGCTHITAQTAVLIETLCALGAQCRWSACNIYSTQNEVAAALAEAGVAVFAWKGESEDDFWWCIDRCVNMDGWQANMILDDGGDLTHWVYKKYPNVFKKIRGIVEESVTGVHRLYQLSKAGKLCVPAMNVNDSVTKQKFDNLYCCRESILDGLKRTTDVMFGGKQVVVCGYGEVGKGCCAALKALGAIVYITEIDPICALQACMDGFRVVKLNEVIRQVDVVITCTGNKNVVTREHLDRMKNSCIVCNMGHSNTEIDVTSLRTPELTWERVRSQVDHVIWPDGKRVVLLAEGRLLNLSCSTVPTFVLSITATTQALALIELYNAPEGRYKQDVYLLPKKMDEYVASLHLPSFDAHLTELTDDQAKYLGLNKNGPFKPNYYRY
notes: AHCYL1 (IRBIT); Construct details are in the supplementary materials and methods; also called AHCYL1 conjugated-GST beads; source: recombinant, purified (as described in Supplementary materials and methods)
